Experimental data from patent US20220170006A1, “A PSEUDO-RANDOM DNA EDITOR FOR EFFICIENT AND CONTINUOUS NUCLEOTIDE DIVERSIFICATION IN HUMAN CELLS” (THE BROAD INSTITUTE, INC., priority 2019, published 2022).

Assays:
[1] = test system: EGFP gene solely under the control of a T7 promoter (pTarget) in HEK293T cells; assay: EGFP expression from pTarget driven by pEditor variants (T7 RNAP transcriptional activity); format: cell-based, human; details: HEK293T cells co-transfected with pTarget and pEditor variant; listed as pAPOEBC
Protocol: Each pEditor variant was introduced into HEK293T cells together with pTarget in which EGFP gene was solely under the control of a T7 promoter. […] Scale bar, 200 μm, which also applies to other micrographs. […] Cells transfected with pTarget and pEditor plasmids were incubated for 3 days before being harvested. pTarget plasmids were extracted and PCR reactions were performed to amplify the target region. Sequencing libraries were prepared using the PCR products and next-generation sequencing was performed. Mutation rates in each group, across different pEditor variants, were calculated.
(§1) HEK293T cells were obtained from ATCC and were grown in high-glucose (4.5 g/L) DMEM supplemented with GlutaMAX™, 1 mM sodium pyruvate, 10% FBS, 100 units/mL of penicillin and 100 μg/mL of streptomycin in a humidified chamber with 5% CO2 at 37° C. Cells were maintained at ˜80% confluence in 24-well plates on the day of transfection. 250 ng of pTarget and 250 ng of pEditor plasmids were mixed together with 1 μl of TransIT-X2 reagent (Mirus) and the mixture was incubated in 50 μl of Opti-MEM® (Thermo Fisher Scientific™) for 30 min. The mixture was then added drop-wise to each well. […]
To test whether fusing a cytidine deaminase to T7 RNAP maintained T7 RNAP activity, pTarget and various pEditor plasmids were transfected into HEK 293T cells and EGFP fluorescence under each condition was measured.

[2] = test system: 2000-bp window downstream of a T7 promoter on pTarget in HEK293T cells; assay: Mutation rates in the 2000-bp window of the pTarget plasmid by high-throughput sequencing; format: cell-based, human; details: cytidine deaminase only
Protocol: as §1
To sequence the targeted region (˜2000 bp) on pTarget, plasmids were extracted from ˜1 million cells using Qiaprep Spin Miniprep Kit. PCR was performed using those plasmids as templates (primer sequences are shown in Table 2 above. Ampure® XP beads (Beckman Coulter™) were added to samples at a 0.8:1 ratio to size select for the pcr'ed fragments. The concentration of each sample was measured by Qubit™ (Thermo Fisher Scientific™). 1 ng of DNA at a volume of 2.5 μl from each sample was used as input for the subsequent library preparation. Sequencing library was prepared following the Nextera® XT Kit protocol (Illumina®) except that half the amount of each reagent was used. To sequence the targeted loci, genomic DNA was extracted from ˜1 million cells using the Quick-DNA™ Kit (Zymo Research™). […]

B1: pAPOBEC: control plasmid expressing deaminase alone (rat APOBEC1) (protein, UniProt P38483 1-229, looked up)
C->U-editing enzyme APOBEC-1: MSSETGPVAVDPTLRRRIEPHEFEVFFDPRELRKETCLLYEINWGGRHSIWRHTSQNTNKHVEVNFIEKFTTERYFCPNTRCSITWFLSWSPCGECSRAITEFLSRYPHVTLFIYIARLYHHADPRNRQGLRDLISSGVTIQIMTEQESGYCWRNFVNYSPSNEAHWPRYPHLWVRLYVLELYCIILGLPPCLNILRRKQPQLTFFTIALQSCHYQRLPPHILWATGLK
B1 was tested, and the “EGFP expression / EGFP signals” value [1] was “not” and the “C->T and G->A mutation rates compared with background (pT7) error rates” value [2] was “not statistically different from the background error rates”.
